Reference: PMC4175982

Target: GrpU protein from Clostridiales bacterium 1_7_47FAA (Clostridiales bacterium 1_7_47FAA)
Assay: crystal structure

Q: Which stoichiometry N does the source give for “GrpU protein from Clostridiales bacterium 1_7_47FAA (natural protein)” here?
A: 6
